{"source": "the supplement of paper PMC12764529", "key": {"[1]": {"assay": "folding stability dG unfold from trypsin proteolysis; higher = more stable", "procedure,_shortened": "(§1)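 Mini-proteins designed to be under 80 residues and free of cysteine were carried in a PA-tagged cDNA display construct and digested with trypsin and with chymotrypsin. Each protease was applied at 11 threefold-diluted concentrations, alongside a no-protease condition, before sequencing. K50 came from Bayesian fitting of the sequencing counts, and unfolding free energy was obtained by comparing it with a sequence-predicted unfolded-state K50 and a shared folded-state K50, for each protease separately or for both together. Designs were retained only if their AlphaFold2 dimer inter-PAE exceeded 15.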"}, "[2]": {"assay": "folding stability dG unfold from chymotrypsin proteolysis; higher = more stable", "procedure,_shortened": "as §1"}, "[3]": {"assay": "folding stability dG unfold (combined trypsin and chymotrypsin); higher = more stable", "procedure,_shortened": "as §1"}}, "note": "± gives the half width of the 95% confidence interval."}
{"sequence": "SAGGNLMIRVELYRPKPDPEGEWQKREVTLPMPPGEPIEELIDELRPPGWVIEIDIFDNGKPIREYYIRSAG [r5_278_TrROS]", "values": [{"measurement": "folding stability dG unfold", "setting": "[1]", "value": "1.76 ± 0.12", "unit": "kcal/mol"}, {"measurement": "folding stability dG unfold", "setting": "[2]", "value": "2.86 ± 0.14", "unit": "kcal/mol"}, {"measurement": "folding stability dG unfold", "setting": "[3]", "value": "2.34 ± 0.35", "unit": "kcal/mol"}]}
{"sequence": "SAGGNMFMIKIDDPDALKELANEPGISSVHYNPNNGRYTVMFNFPDGMRTFEIDAEDGKIKEIEPFPSAGGS [r8_251_TrROS]", "values": [{"measurement": "folding stability dG unfold", "setting": "[1]", "value": "1.58 ± 0.034", "unit": "kcal/mol"}, {"measurement": "folding stability dG unfold", "setting": "[2]", "value": "1.82 ± 0.037", "unit": "kcal/mol"}, {"measurement": "folding stability dG unfold", "setting": "[3]", "value": "1.79 ± 0.039", "unit": "kcal/mol"}]}
{"sequence": "SAGGNMWMVRVKIDDGKTFMITSPEDIEEYLKKKLGPNYKIKEVEWHRMPPPNGPPMPMHEFEIEVPSAGGS [r16_408_TrROS]", "values": [{"measurement": "folding stability dG unfold", "setting": "[1]", "value": "1.28 ± 0.062", "unit": "kcal/mol"}, {"measurement": "folding stability dG unfold", "setting": "[2]", "value": "2.02 ± 0.1", "unit": "kcal/mol"}, {"measurement": "folding stability dG unfold", "setting": "[3]", "value": "1.76 ± 0.16", "unit": "kcal/mol"}]}
{"sequence": "SAGGNRIMFIVNSPEEAERFANFIRKHLPPGMNLEIEIEPFPLKDNVPPDDPDYKNQPVYMVHITIPSAGGS [r16_795_TrROS]", "values": [{"measurement": "folding stability dG unfold", "setting": "[1]", "value": "3 ± 0.096", "unit": "kcal/mol"}, {"measurement": "folding stability dG unfold", "setting": "[2]", "value": "4.13 ± 0.12", "unit": "kcal/mol"}, {"measurement": "folding stability dG unfold", "setting": "[3]", "value": "3.73 ± 0.2", "unit": "kcal/mol"}]}
{"sequence": "SAGGNRKFTLIIRIKAPPGDPDKMKEEVKEIANEIADIFRDHGVKVKVKVEYDPDNGEIYVQVEFEVPSAGG [r13_755_TrROS]", "values": [{"measurement": "folding stability dG unfold", "setting": "[1]", "value": "3.89 ± 0.29", "unit": "kcal/mol"}, {"measurement": "folding stability dG unfold", "setting": "[2]", "value": "5.12 ± 0.31", "unit": "kcal/mol"}, {"measurement": "folding stability dG unfold", "setting": "[3]", "value": "4.78 ± 0.29", "unit": "kcal/mol"}]}
{"sequence": "SAGGNTIMIPMDPPQAREFAKNFIGEFLDQAEENPDRPIEIMVPGPEGRYITIRVDPKEGNLEIEVVPSAGG [r13_216_TrROS]", "values": [{"measurement": "folding stability dG unfold", "setting": "[1]", "value": "0.231 ± 0.057", "unit": "kcal/mol"}, {"measurement": "folding stability dG unfold", "setting": "[2]", "value": "-0.125 ± 0.17", "unit": "kcal/mol"}, {"measurement": "folding stability dG unfold", "setting": "[3]", "value": "0.125 ± 0.089", "unit": "kcal/mol"}]}
{"sequence": "SAGGPATLTFEFPAEDGSRVRVEVTVEEVPFVDPRTGEPVAPFLKVHVKVTVFDEDGEAHEAEFELLSAGGS [r8_474_TrMRF]", "values": [{"measurement": "folding stability dG unfold", "setting": "[1]", "value": "2.22 ± 0.043", "unit": "kcal/mol"}, {"measurement": "folding stability dG unfold", "setting": "[2]", "value": "4.21 ± 0.075", "unit": "kcal/mol"}, {"measurement": "folding stability dG unfold", "setting": "[3]", "value": "3.73 ± 0.12", "unit": "kcal/mol"}]}
{"sequence": "SAGGPDELELVIVFPAEALGTGEGGEPYTAEDIAEAIKKELPKDEVEVEIAEIDEETGEIVVTVKVPSAGGS [r16_284_TrMRF]", "values": [{"measurement": "folding stability dG unfold", "setting": "[1]", "value": "0.747 ± 0.13", "unit": "kcal/mol"}, {"measurement": "folding stability dG unfold", "setting": "[2]", "value": "0.449 ± 0.077", "unit": "kcal/mol"}, {"measurement": "folding stability dG unfold", "setting": "[3]", "value": "0.748 ± 0.23", "unit": "kcal/mol"}]}
{"sequence": "SAGGPEVFVFRDPLTGTWSLAVYDPSTGLWTVTYPDGTVALYRRSGDSWELVEARPVPPAPVDPDLASAGGS [r16_687_TrMRF]", "values": [{"measurement": "folding stability dG unfold", "setting": "[1]", "value": "3.34 ± 0.12", "unit": "kcal/mol"}, {"measurement": "folding stability dG unfold", "setting": "[2]", "value": "3.714 ± 0.014", "unit": "kcal/mol"}, {"measurement": "folding stability dG unfold", "setting": "[3]", "value": "3.54 ± 0.065", "unit": "kcal/mol"}]}
{"sequence": "SAGGPGAAPTSTTVTVTIHLPMPPDVSDEEAKALAKERIKEEFPPSYTIESITVDPATNVVTATVKVASAGG [r19_81_JUSTAS]", "values": [{"measurement": "folding stability dG unfold", "setting": "[1]", "value": "3.32 ± 0.15", "unit": "kcal/mol"}, {"measurement": "folding stability dG unfold", "setting": "[2]", "value": "2.88 ± 0.1", "unit": "kcal/mol"}, {"measurement": "folding stability dG unfold", "setting": "[3]", "value": "3.11 ± 0.16", "unit": "kcal/mol"}]}
{"sequence": "SAGGPGFQRYPYTLELPDGRKITVEYWRMGDNPYVQIDIRHDGEPLGTIHVPVPSPDQIEDAAKDIISAGGS [r16_55_TrROS]", "values": [{"measurement": "folding stability dG unfold", "setting": "[1]", "value": "1.18 ± 0.057", "unit": "kcal/mol"}, {"measurement": "folding stability dG unfold", "setting": "[2]", "value": "1.78 ± 0.054", "unit": "kcal/mol"}, {"measurement": "folding stability dG unfold", "setting": "[3]", "value": "1.58 ± 0.072", "unit": "kcal/mol"}]}
{"sequence": "SAGGPISKKKIVTAPVSYDPATGKYTITLTYPDSTYTIPSDLSDLEEALKRAKEKLEKETGIPVETVLGSAG [r5_251_JUSTAS]", "values": [{"measurement": "folding stability dG unfold", "setting": "[1]", "value": "0.576 ± 0.032", "unit": "kcal/mol"}, {"measurement": "folding stability dG unfold", "setting": "[2]", "value": "1 ± 0.11", "unit": "kcal/mol"}, {"measurement": "folding stability dG unfold", "setting": "[3]", "value": "0.918 ± 0.074", "unit": "kcal/mol"}]}
{"sequence": "SAGGPKKAIEILKKEGFTIKSVDPKKKKVIATPKETDIPIEIYVIGDDKVLIVEYLKGKPIIKEFKKSAGGS [r16_197_TrMRF]", "values": [{"measurement": "folding stability dG unfold", "setting": "[1]", "value": "0.834 ± 0.04", "unit": "kcal/mol"}, {"measurement": "folding stability dG unfold", "setting": "[2]", "value": "0.741 ± 0.12", "unit": "kcal/mol"}, {"measurement": "folding stability dG unfold", "setting": "[3]", "value": "0.829 ± 0.15", "unit": "kcal/mol"}]}
{"sequence": "SAGGPKPGEKWIARTKEGLVPITLEGDKVTITDALTGKKTVIPIPGASLEEIKELLLSEPDYEVYPESAGGS [r16_583_JUSTAS]", "values": [{"measurement": "folding stability dG unfold", "setting": "[1]", "value": "-0.603 ± 0.37", "unit": "kcal/mol"}, {"measurement": "folding stability dG unfold", "setting": "[2]", "value": "-0.737 ± 0.32", "unit": "kcal/mol"}, {"measurement": "folding stability dG unfold", "setting": "[3]", "value": "-0.404 ± 0.19", "unit": "kcal/mol"}]}
{"sequence": "SAGGPKVVRIRYTMPPDQARDFIEELFGRPMSADDIADKLPPGFKVGIRAHPNPNGHVTFEIWIKLPDSAGG [r13_869_TrROS]", "values": [{"measurement": "folding stability dG unfold", "setting": "[1]", "value": "2.37 ± 0.062", "unit": "kcal/mol"}, {"measurement": "folding stability dG unfold", "setting": "[2]", "value": "3.068 ± 0.021", "unit": "kcal/mol"}, {"measurement": "folding stability dG unfold", "setting": "[3]", "value": "2.93 ± 0.11", "unit": "kcal/mol"}]}
{"sequence": "SAGGPLEVTLVESETTFLPEGKVVTREVTRLPDDTILVTTYTTTIDPNSGTTTTTSETVVLPAGAALSAGGS [r16_639_JUSTAS]", "values": [{"measurement": "folding stability dG unfold", "setting": "[1]", "value": "2.11 ± 0.046", "unit": "kcal/mol"}, {"measurement": "folding stability dG unfold", "setting": "[2]", "value": "0.627 ± 0.068", "unit": "kcal/mol"}, {"measurement": "folding stability dG unfold", "setting": "[3]", "value": "1.49 ± 0.032", "unit": "kcal/mol"}]}
{"sequence": "SAGGPLTLEDLKNMPPGEKLEFTFGGYTYEVEIYKNDNGPPYITVKQRDPHDGEPVEEKRVPADDIVSAGGS [r16_763_TrROS]", "values": [{"measurement": "folding stability dG unfold", "setting": "[1]", "value": "0.956 ± 0.032", "unit": "kcal/mol"}, {"measurement": "folding stability dG unfold", "setting": "[2]", "value": "1.92 ± 0.026", "unit": "kcal/mol"}, {"measurement": "folding stability dG unfold", "setting": "[3]", "value": "1.58 ± 0.058", "unit": "kcal/mol"}]}
{"sequence": "SAGGPLTLEFTLPNGDEVGDVTVEPLPDDSYIVTVVAEDKDRPGVYYVSLVRIPPTDRTLEVVSGPVYSAGG [r13_370_TrMRF]", "values": [{"measurement": "folding stability dG unfold", "setting": "[1]", "value": "1.12 ± 0.02", "unit": "kcal/mol"}, {"measurement": "folding stability dG unfold", "setting": "[2]", "value": "1.24 ± 0.12", "unit": "kcal/mol"}, {"measurement": "folding stability dG unfold", "setting": "[3]", "value": "1.2 ± 0.064", "unit": "kcal/mol"}]}
